# B1: Mothers against decapentaplegic homolog 4 (Homo sapiens), Q13485 (parent)
# chain: MDNMSITNTPTSNDACLSIVHSLMCHRQGGESETFAKRAIESLVKKLKEKKDELDSLITAITTNGAHPSKCVTIQRTLDGRLQVAGRKGFPHVIYARLWRWPDLHKNELKHVKYCQYAFDLKCDSVCVNPYHYERVVSPGIDLSGLTLQSNAPSSMMVKDEYVHDFEGQPSLSTEGHSIQTIQHPPSNRASTETYSTPALLAPSESNATSTANFPNIPVASTSQPASILGGSHSEGLLQIASGPQPGQQQNGFTGQPATYHHNSTTTWTGSRTAPYTPNLPHHQNGHLQHHPPMPPHPGHYWPVHNELAFQPPISNHPAPEYWCSIAYFEMDVQVGETFKVPSSCPIVTVDGYVDPSGGDRFCLGQLSNVHRTEAIERARLHIGKGVQLECKGEGDVWVRCLSDHAVFVQSYYLDREAGRAPGDAVHKIYPSAYIKVFDLRQCHRQMQQQAATAQAAAAAQAAAVAGNIPGPGSVGGIAPAISLSAAAGIGVDDLRRLCILRMSFVKGWGPDYPRQSIKETPCWIEIHLHRALQLLDEVLHTMPIADPQPLD
# Variants of: B1
# Conditions: with ros1_human ROS1, P08922
row,effect of a mutation on the interaction,Variant
1,with no effect,R361C

# Variants of: B1
# Conditions: with ks6b1_human RPS6KB1, P23443
# Chain of ks6b1_human RPS6KB1, P23443 (P23443 whole entry, looked up): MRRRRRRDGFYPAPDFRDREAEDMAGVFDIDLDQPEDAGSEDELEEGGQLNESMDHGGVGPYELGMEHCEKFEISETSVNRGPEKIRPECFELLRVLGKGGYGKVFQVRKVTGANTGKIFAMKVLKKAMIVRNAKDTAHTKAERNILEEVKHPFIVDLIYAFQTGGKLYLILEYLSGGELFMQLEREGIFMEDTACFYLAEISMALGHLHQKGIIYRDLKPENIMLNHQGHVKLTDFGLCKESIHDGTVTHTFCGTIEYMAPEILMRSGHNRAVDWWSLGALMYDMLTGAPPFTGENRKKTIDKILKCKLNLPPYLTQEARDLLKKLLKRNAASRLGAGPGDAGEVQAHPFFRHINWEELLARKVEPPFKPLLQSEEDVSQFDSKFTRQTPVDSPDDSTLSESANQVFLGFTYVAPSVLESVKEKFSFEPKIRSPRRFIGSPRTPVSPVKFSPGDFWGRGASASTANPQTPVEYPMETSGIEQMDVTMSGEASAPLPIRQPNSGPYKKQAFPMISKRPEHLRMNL
row,effect of a mutation on the interaction,Variant
1,with no effect,R361C

# Variants of: B1
# Conditions: with runx1_human RUNX1, Q01196
row,effect of a mutation on the interaction,Variant
1,with no effect,R361C

# Variants of: B1
# Conditions: with ruvb1_human RUVBL1, Q9Y265
row,effect of a mutation on the interaction,Variant
1,with no effect,R361C

# Variants of: B1
# Conditions: with rxra_human RXRA
row,effect of a mutation on the interaction,Variant
1,with no effect,R361C

# Variants of: B1
# Conditions: with sdha_human SDHA
row,effect of a mutation on the interaction,Variant
1,with no effect,R361C

# Variants of: B1
# Conditions: with setb1_human SETDB1, Q15047
row,effect of a mutation on the interaction,Variant
1,with no effect,R361C

# Variants of: B1
# Conditions: with sf3b1_human SF3B1, O75533
# Chain of sf3b1_human SF3B1, O75533 (O75533 whole entry): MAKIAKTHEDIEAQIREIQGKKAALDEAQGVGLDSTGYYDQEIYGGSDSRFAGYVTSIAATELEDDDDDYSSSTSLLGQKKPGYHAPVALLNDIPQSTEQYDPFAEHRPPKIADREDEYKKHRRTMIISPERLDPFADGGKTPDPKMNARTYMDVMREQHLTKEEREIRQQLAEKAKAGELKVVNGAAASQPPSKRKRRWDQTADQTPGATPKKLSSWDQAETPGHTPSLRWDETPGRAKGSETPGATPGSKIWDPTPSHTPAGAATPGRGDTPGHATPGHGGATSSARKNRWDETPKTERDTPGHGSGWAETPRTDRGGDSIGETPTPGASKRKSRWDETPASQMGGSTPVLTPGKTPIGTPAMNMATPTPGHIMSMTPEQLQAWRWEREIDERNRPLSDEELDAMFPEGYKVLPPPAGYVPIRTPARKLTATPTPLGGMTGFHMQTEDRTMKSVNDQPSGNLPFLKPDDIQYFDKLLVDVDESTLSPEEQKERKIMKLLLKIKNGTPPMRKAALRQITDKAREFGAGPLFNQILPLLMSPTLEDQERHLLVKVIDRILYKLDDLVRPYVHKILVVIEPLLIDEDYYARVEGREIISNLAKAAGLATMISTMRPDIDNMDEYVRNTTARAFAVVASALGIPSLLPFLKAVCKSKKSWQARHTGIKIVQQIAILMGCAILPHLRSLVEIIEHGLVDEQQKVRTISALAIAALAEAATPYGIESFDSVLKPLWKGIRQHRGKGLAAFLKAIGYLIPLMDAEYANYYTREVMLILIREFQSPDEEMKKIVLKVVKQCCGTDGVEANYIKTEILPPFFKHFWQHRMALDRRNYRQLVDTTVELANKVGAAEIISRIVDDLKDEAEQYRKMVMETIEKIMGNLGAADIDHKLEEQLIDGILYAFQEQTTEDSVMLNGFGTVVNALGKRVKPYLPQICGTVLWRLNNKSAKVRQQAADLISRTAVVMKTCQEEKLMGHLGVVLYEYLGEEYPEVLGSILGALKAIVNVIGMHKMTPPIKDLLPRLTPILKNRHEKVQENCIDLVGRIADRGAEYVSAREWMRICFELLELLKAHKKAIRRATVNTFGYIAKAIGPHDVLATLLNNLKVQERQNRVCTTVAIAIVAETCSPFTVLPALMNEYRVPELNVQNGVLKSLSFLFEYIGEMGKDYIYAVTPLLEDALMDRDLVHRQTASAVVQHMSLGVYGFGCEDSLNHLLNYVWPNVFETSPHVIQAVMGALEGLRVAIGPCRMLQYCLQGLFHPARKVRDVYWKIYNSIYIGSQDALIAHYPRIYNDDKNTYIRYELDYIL
row,effect of a mutation on the interaction,Variant
1,with no effect,R361C

# Variants of: B1
# Conditions: with skp2_human SKP2, Q13309
row,effect of a mutation on the interaction,Variant
1,with no effect,R361C

# Variants of: B1
# Conditions: with smad1_human SMAD1, Q15797
row,effect of a mutation on the interaction,Variant
1,with no effect,R361C

# Variants of: B1
# Conditions: with smad2_human SMAD2, Q15796
row,effect of a mutation on the interaction,Variant
1,with no effect,R361C

# Variants of: B1
# Conditions: with smad3_human SMAD3, P84022
# Chain of smad3_human SMAD3, P84022 (P84022 whole entry, looked up): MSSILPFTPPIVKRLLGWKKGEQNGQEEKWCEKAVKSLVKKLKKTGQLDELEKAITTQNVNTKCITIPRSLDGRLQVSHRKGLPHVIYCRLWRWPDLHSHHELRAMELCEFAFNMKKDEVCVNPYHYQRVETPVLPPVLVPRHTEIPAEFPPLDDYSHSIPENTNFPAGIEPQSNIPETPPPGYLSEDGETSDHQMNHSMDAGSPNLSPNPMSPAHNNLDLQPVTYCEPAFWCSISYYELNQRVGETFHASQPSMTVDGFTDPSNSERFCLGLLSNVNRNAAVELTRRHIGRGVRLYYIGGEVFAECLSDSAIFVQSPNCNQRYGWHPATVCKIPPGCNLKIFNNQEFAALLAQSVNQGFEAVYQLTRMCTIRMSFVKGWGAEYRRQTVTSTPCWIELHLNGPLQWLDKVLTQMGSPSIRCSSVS
row,effect of a mutation on the interaction,Variant
1,with no effect,R361C

# Variants of: B1
# Conditions: with smca4_human SMARCA4, P51532
row,effect of a mutation on the interaction,Variant
1,with no effect,R361C

# Variants of: B1
# Conditions: with snf5_human SMARCB1, Q12824
row,effect of a mutation on the interaction,Variant
1,with no effect,R361C

# Variants of: B1
# Conditions: with smo_human SMO
row,effect of a mutation on the interaction,Variant
1,with no effect,R361C

# Variants of: B1
# Conditions: with socs1_human SOCS1, O15524
row,effect of a mutation on the interaction,Variant
1,with no effect,R361C

# Variants of: B1
# Conditions: with sox10_human SOX10, P56693
# Chain of sox10_human SOX10, P56693 (P56693 whole entry): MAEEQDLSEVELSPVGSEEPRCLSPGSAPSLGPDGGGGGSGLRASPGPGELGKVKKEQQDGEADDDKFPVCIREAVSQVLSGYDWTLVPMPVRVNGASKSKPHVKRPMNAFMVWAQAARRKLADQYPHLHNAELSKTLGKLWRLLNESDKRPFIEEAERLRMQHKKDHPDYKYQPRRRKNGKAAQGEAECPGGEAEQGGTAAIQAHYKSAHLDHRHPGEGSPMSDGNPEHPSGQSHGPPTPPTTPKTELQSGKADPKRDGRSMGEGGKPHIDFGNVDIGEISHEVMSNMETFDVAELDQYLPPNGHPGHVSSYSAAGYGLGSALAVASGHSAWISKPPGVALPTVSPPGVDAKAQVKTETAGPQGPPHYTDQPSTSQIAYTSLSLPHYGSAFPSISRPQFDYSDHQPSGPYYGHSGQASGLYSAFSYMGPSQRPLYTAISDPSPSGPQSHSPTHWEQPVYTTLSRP
row,effect of a mutation on the interaction,Variant
1,with no effect,R361C

# Variants of: B1
# Conditions: with sox2_human SOX2, P48431
row,effect of a mutation on the interaction,Variant
1,with no effect,R361C

# Variants of: B1
# Conditions: with sox3_human SOX3, P41225
row,effect of a mutation on the interaction,Variant
1,with no effect,R361C

# Variants of: B1
# Conditions: with sox4_human SOX4, Q06945
row,effect of a mutation on the interaction,Variant
1,with no effect,R361C

# Variants of: B1
# Conditions: with sox9_human SOX9, P48436
row,effect of a mutation on the interaction,Variant
1,with no effect,R361C

# Variants of: B1
# Conditions: with spop_human SPOP
row,effect of a mutation on the interaction,Variant
1,with no effect,R361C

# Variants of: B1
# Conditions: with src_human SRC
row,effect of a mutation on the interaction,Variant
1,with no effect,R361C

# Variants of: B1
# Conditions: with stat3_human STAT3, P40763
row,effect of a mutation on the interaction,Variant
1,with no effect,R361C

# Variants of: B1
# Conditions: with stk38_human STK38, Q15208
row,effect of a mutation on the interaction,Variant
1,with no effect,R361C

# Variants of: B1
# Conditions: with ksyk_human SYK
row,effect of a mutation on the interaction,Variant
1,with no effect,R361C

# Variants of: B1
# Conditions: with eloc_human ELOC
row,effect of a mutation on the interaction,Variant
1,with no effect,R361C

# Variants of: B1
# Conditions: with tfe2_human TCF3, P15923
row,effect of a mutation on the interaction,Variant
1,with no effect,R361C

# Variants of: B1
# Conditions: with tead1_human TEAD1, P28347
row,effect of a mutation on the interaction,Variant
1,with no effect,R361C

# Variants of: B1
# Conditions: with tead2_human TEAD2, Q15562
# Chain of tead2_human TEAD2, Q15562 (Q15562 whole entry): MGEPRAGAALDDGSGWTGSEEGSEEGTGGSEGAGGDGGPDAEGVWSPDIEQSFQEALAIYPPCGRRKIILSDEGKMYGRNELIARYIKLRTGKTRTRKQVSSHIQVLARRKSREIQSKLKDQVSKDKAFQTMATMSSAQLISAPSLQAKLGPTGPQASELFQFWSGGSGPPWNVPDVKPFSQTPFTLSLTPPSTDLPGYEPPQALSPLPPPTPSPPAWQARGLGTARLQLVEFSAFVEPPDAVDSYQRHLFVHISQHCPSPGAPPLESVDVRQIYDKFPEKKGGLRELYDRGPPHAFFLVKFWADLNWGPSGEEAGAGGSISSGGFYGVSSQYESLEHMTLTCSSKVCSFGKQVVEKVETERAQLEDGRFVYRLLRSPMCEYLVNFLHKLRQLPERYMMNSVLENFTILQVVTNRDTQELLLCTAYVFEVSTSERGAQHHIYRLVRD
row,effect of a mutation on the interaction,Variant
1,with no effect,R361C

# Variants of: B1
# Conditions: with tead3_human TEAD3, Q99594
row,effect of a mutation on the interaction,Variant
1,with no effect,R361C

# Variants of: B1
# Conditions: with tgfr2_human TGFBR2, P37173
row,effect of a mutation on the interaction,Variant
1,with no effect,R361C

# Variants of: B1
# Conditions: with tnr14_human TNFRSF14, Q92956
# Chain of tnr14_human TNFRSF14, Q92956 (Q92956 whole entry): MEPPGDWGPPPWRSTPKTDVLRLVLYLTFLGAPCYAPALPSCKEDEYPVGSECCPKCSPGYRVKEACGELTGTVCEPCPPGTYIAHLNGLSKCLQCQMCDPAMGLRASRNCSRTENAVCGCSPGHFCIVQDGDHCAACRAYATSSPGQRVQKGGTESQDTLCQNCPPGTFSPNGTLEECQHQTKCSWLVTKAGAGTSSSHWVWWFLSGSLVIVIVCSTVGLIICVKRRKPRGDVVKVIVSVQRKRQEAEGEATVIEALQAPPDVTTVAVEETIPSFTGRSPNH
row,effect of a mutation on the interaction,Variant
1,with no effect,R361C

# Variants of: B1
# Conditions: with tpx2_human TPX2, Q9ULW0
# Chain of tpx2_human TPX2, Q9ULW0 (Q9ULW0 whole entry): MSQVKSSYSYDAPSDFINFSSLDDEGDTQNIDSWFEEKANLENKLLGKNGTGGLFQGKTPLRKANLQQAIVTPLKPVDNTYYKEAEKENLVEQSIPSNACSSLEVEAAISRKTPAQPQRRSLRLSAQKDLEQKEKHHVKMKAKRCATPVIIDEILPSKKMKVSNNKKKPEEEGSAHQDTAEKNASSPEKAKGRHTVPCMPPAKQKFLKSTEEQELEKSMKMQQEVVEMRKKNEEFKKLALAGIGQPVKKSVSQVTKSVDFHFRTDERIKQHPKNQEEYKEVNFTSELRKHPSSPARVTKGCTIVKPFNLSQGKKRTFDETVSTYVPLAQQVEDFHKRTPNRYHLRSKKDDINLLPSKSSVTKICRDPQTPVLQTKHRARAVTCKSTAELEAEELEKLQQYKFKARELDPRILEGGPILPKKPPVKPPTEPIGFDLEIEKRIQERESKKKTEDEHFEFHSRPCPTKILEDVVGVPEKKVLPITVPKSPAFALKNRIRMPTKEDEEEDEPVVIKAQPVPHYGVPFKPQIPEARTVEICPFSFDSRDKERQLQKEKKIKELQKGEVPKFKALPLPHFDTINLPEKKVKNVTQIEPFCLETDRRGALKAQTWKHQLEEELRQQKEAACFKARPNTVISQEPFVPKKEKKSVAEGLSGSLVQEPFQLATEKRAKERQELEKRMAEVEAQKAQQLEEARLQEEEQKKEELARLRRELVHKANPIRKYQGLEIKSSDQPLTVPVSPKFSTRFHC
row,effect of a mutation on the interaction,Variant
1,with no effect,R361C

# Variants of: B1
# Conditions: with trrap_human TRRAP
row,effect of a mutation on the interaction,Variant
1,with no effect,R361C

# Variants of: B1
# Conditions: with tsc2_human TSC2, P49815
row,effect of a mutation on the interaction,Variant
1,with no effect,R361C

# Variants of: B1
# Conditions: with tshr_human TSHR
row,effect of a mutation on the interaction,Variant
1,with no effect,R361C

# Variants of: B1
# Conditions: with wt1_human WT1, P19544
row,effect of a mutation on the interaction,Variant
1,with no effect,R361C

# Variants of: B1
# Conditions: with wwtr1_human WWTR1, Q9GZV5
# Chain of wwtr1_human WWTR1, Q9GZV5 (Q9GZV5 whole entry): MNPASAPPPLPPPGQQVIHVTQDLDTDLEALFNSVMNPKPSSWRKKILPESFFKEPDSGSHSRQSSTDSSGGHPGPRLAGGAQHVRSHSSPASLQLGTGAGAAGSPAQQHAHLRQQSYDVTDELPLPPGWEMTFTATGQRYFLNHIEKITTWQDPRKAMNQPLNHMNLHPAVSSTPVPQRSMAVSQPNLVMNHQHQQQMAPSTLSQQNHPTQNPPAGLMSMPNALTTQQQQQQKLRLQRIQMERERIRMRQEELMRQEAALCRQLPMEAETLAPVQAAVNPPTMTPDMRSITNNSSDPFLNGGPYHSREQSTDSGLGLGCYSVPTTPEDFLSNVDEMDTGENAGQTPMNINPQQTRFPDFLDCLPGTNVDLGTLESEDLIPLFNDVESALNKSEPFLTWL
row,effect of a mutation on the interaction,Variant
1,with no effect,R361C

# Variants of: B1
# Conditions: with xpo1_human XPO1, O14980
row,effect of a mutation on the interaction,Variant
1,with no effect,R361C

# Variants of: B1
# Conditions: with 1433b_human YWHAB
row,effect of a mutation on the interaction,Variant
1,with no effect,R361C

# Variants of: B1
# Conditions: with 1433e_human YWHAE
row,effect of a mutation on the interaction,Variant
1,with no effect,R361C

# Variants of: B1
# Conditions: with 1433z_human YWHAZ
row,effect of a mutation on the interaction,Variant
1,with no effect,R361C

# Variants of: B1
# Conditions: with gata2_human GATA2, P23769
row,effect of a mutation on the interaction,Variant
1,decreasing interaction strength,R361C

# Variants of: B1
# Conditions: with smad3_human SMAD3, P84022
# Remark: another data set of the same source
row,effect of a mutation on the interaction,Variant
1,decreasing interaction strength,R361C

# Variants of: B1
# Conditions: with cdk6_human CDK6, Q00534
# Chain of cdk6_human CDK6, Q00534 (Q00534 whole entry): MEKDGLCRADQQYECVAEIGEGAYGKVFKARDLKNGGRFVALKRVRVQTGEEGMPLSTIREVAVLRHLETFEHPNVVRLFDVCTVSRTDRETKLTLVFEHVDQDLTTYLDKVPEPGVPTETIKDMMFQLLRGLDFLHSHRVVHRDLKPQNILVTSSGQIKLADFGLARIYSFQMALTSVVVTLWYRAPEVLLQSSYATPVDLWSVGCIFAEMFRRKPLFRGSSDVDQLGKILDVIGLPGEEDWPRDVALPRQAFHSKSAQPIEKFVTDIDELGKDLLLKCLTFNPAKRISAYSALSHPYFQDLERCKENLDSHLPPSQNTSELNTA
row,effect of a mutation on the interaction,Variant
1,decreasing interaction strength,R361C
